Data from the nanobody polyreactivity screen of Harvey et al. (2022).

Assay: yeast display, Sf9 membrane polyspecificity reagent, FACS + sequencing; frameworks hold sequencing errors
Method in brief: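 A nanobody's polyreactivity label depends on the gate it was sorted from. Yeast display cells were stained with 10% biotinylated, detergent-solubilized Sf9 membrane reagent for 1 hour at 4 °C, enriched on streptavidin microbeads and sorted by FACS. The low and high (top ~1%) gates were set on anti-HA fluorescence for expression and streptavidin fluorescence for reagent binding.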

Row | Sequence | polyreactivity (PSR sort gate)
1 | QVQLVESGGGLVQAGGSLRLSCAASGSIFNGYVMGWYTQAPGKERELVAANSRSGGRTYYADSVKGRFTISRDNAKNTVYLQMNSLKPEDTAVYYCAARNYLYAIMGKWLDYNYWGQGTQVTVSS | high polyreactivity
2 | QVQLVESGGGLVQAGGSLRLSCAASGSIFNINAMGWYRQAPGKERELVATITSGGTASYADSVKGRFTISRDNAKNTVYLQMNSLKPEDTAVYDCNAEMYPIVKAGRQHPRRYDYWGQGTQVTVSS | low polyreactivity
3 | QVQLVESGGGLVQAGGSLRLSCAASGSIFNIYAMGWDRQAPGKERELVAAIRWTGGSTYYADSVKGRFTISRDTAKNTVDLQMTSLKPEATAVYYCAARTSRGGHYYWGPGTQVTVSS | high polyreactivity
4 | QVQLVESGGGLVQAGGSLRLSCAASGSIFNIYAMGWYRQAPGKERELVATITGIADSTYYADSVKGRFTISRDNAKNTVYLQMNSLKPEDTAVYFCAAKYGSRYTTGQTRRDYYSWGQGTQVTVSS | low polyreactivity
5 | QVQLVESGGGLVQAGGSLRLSCAASGSIFNIYAMGWYRQAPGKERELVATITGIADSTYYADSVKGRFTISRDNAKNTVYLQMNSLKPEDTAVYYCNADPSGVFFYSLEFDYWGQGTQVTVSS | low polyreactivity
6 | QVQLVESGGGLVQAGGSLRLSCAASGSIFNKNVMGWYRQAPGKERELVAAITSGGGSTYYADSVKGRFTISRDNAKNTVYLQMNSLKPEDTAVYYCAAGRGLYEYNYWGQGTQVTVSS | high polyreactivity
7 | QVQLVESGGGLVQAGGSLRLSCAASGSIFNLYTMGWYRQAPGKEREFVSAISSSGTSTYYADSVKGRFTISRDNAKNTVYLQMNSLKPEDTAVYYCAADWTGGFYTWYVIPYDYWGQGTQVTVSS | low polyreactivity
8 | QVQLVESGGGLVQAGGSLRLSCAASGSIFNLYTMGWYRQAPGKERELVAVITGGGSTYYADSVKGRFTISRDNAKNTVYLQMNSLKPDDTAVYYCAAKGPYYKSSRTGDYWGQGTQVTVSS | low polyreactivity
9 | QVQLVESGGGLVQAGGSLRLSCAASGSIFNPYAMGWYRQAPGKERELVAVIRSRGDRTYYADSVKGRFTISRDYAKNTVYLQMNSLKPEDTAVYYCAVRAQESLWKQYYYWGQGTQVTVSS | high polyreactivity
10 | QVQLVESGGGLVQAGGSLRLSCAASGSIFNRNAMGWYRQAPGKERELVAAINYSGGSTYYADSVKGRFTISRDNAKNTVYLQMNSLKPEDTAVYYCAARPVALRKYDYWGQGTQVTVSS | low polyreactivity
11 | QVQLVESGGGLVQAGGSLRLSCAASGSIFNRNAMGWYRQARGKERELVAAITGSGGRTYYADSVKGRFTISRDNAKNTVYLQMNSLKPEDTAVYYCAARWGYYRYYIFDYWGQGTQVTVSS | high polyreactivity
12 | QVQLVESGGGLVQAGGSLRLSCAASGSIFNRYAMGWYRKAPGKERELVAAMSSTGSTYYADSVKGRFTISRDNAKNTVYLQMNSLKPEDTAVYYCNADATPDWLRVDTYEYWGQGTQVTVSS | low polyreactivity
13 | QVQLVESGGGLVQAGGSLRLSCAASGSIFNRYAMGWYRQAPGKERELVAAIRSGDNTNYADSVKGRFTISRDNAKNTVYLQMNSLKPEDTAVYYCNARYGGYRARYTYNYWGQGTQVTVSS | high polyreactivity
14 | QVQLVESGGGLVQAGGSLRLSCAASGSIFNRYAMGWYRQAPGKERELVASISWRTASTYYADSVKGRFTISRDNAKNTVYLQMNSLKPEDTAVYYCAAKILGRPGYYYWGQGTQVTVSS | high polyreactivity
15 | QVQLVESGGGLVQAGGSLRLSCAASGSIFNRYAMGWYRQAPGKERQFVAAITRRGGNTYYADSVKGRFTISRDNAKNTVYLQMNSLKREDTAVYYCAAPFYYPAGLLYYENNYWGQGTQVTVSS | high polyreactivity
16 | QVQLVESGGGLVQAGGSLRLSCAASGSIFNRYTMGSYRQAPGKEREFVAAISSSGTSTYYADSVKGRFTISRDNAMNTVYLQMNSLKPEDTAVYYCAADYYRTPKSGSSGLDYWGQGTQVTVSS | low polyreactivity

Row | Sequence | polyreactivity (PSR sort gate)
17 | QVQLVESGGGLVQAGGSLRLSCAASGSIFNSNAMGWYRPAPGKERELVAAITGSGGRTYYADSVKGRFTISRDNAKNTVYLKMNSLKPEDTAVYYCNVTRGTIGGYSYWGQGTQVTVSS | high polyreactivity
18 | QVQLVESGGGLVQAGGSLRLSCAASGSIFNSNAMGWYRQAPGKERELVAVISWSDGSTRYADSVKGRFTISRDNVKNTVYLQMNSLKPEDTAVYYCAADYLDGIYEYDYWGQGTQVTVSS | low polyreactivity
19 | QVQLVESGGGLVQAGGSLRLSCAASGSIFNSYAMGWYRQAPGKETELVAAITRSDGSTYYADSVKGRFTISRDKAKNTVYLQMNSLKPEDTAVYYCAKGVGGYIYSEYDYWGQGTQVTVSS | low polyreactivity
20 | QVQLVESGGGLVQAGGSLRLSCAASGSIFNVNAMGWYRQAPGKERELVAAISSGGDTYYADSVKGRFTISRDNAKNTVYLQMNSLKPEDTAVYYCAKQSYTLYTLLYDYWGQGTQVTVSS | low polyreactivity
21 | QVQLVESGGGLVQAGGSLRLSCAASGSIFNWYAMGWYRQAPGKERELVAAISSSGSTNYADSVKGRFTISRDNAKNTVYLQMNSLKPEDTAVYYCNADEYYLNNYNYGYWGQGTQVTVSS | low polyreactivity
22 | QVQLVESGGGLVQAGGSLRLSCAASGSIFNYNAMGWYRHAPGKERELFAAITYHGGSTYYADSVKGRFTISRDNAKYTVYLQMNSLKPEDTAVYYCNALRGYRPGWFDYWGQGTQVTVSS | high polyreactivity
23 | QVQLVESGGGLVQAGGSLRLSCAASGSIFNYNAMGWYRQAPGKERELVAAISSGGSTNYADSVKGRFTISRDNAKNTVYLQMNSLKPEDTAVYYCAKRWWVYYPRYDYWGQGTQVTVSS | high polyreactivity
24 | QVQLVESGGGLVQAGGSLRLSCAASGSIFNYYAMGWYRQAPGKERELVAAISTSGGRTYYADSVKGRFTISRDNAKKTVYLQMNSLKPEDTAVYYCNAVSRTRAGAGDYWGQGTQVTVSS | high polyreactivity
25 | QVQLVESGGGLVQAGGSLRLSCAASGSIFNYYAMGWYRQAPGKERELVAAITSADGRTFYADSVKGRFTISRDNANNTVYLQMNSLKPDDTAVYYCAAERTSRYSTYEYWGQGTQVTVSS | low polyreactivity
26 | QVQLVESGGGLVQAGGSLRLSCAASGSIFNYYDMGWYRQAPGKEREFVARITIGGSSTNYADSVKGRFTISRDNAKNTVYLQMNSLKPEDTAVYYCAASQYGIFFSQMDYWGQGTQVTVSS | low polyreactivity
27 | QVQLVESGGGLVQAGGSLRLSCAASGSIFNYYTMGWYRQAPGKERELVAAITWSGGRTYYADSVKGRFTISRDNAKNTVYLQMNSLKPEDTAVYYCNAVAYKPGGGDDFESWGQGTQLTVSS | high polyreactivity
28 | QVQLVESGGGLVQAGGSLRLSCAASGSIFPAIALGWYRQAPGKERELVAGISERGSSTYYADSVKGRFTISRDNAKNTVYLQMNSLKPEDTAVYYCAADDVGRYWSSTHNWARGDYWGQGTQVTVSS | low polyreactivity
29 | QVQLVESGGGLVQAGGSLRLSCAASGSIFPANVMGWYRQAPGKERELVAVISSSGGRTFYADSVKGRFTISRDNAKNTVYLQMNSLKPEDTAVYYCAATIYDYNRGRKYYYWGQGNQVTVSS | high polyreactivity
30 | QVQLVESGGGLVQAGGSLRLSCAASGSIFPAYAMGWYIQDHGKERELLAAITRGGRTNYADSVKGRFTISRDNAKNTVYLQMNSLKPEDTAVYYCAARGYYAYRFDYWGQGTQVTVSS | high polyreactivity
31 | QVQLVESGGGLVQAGGSLRLSCAASGSIFPAYAMGWYRQAPGKERELVAAITGSGGSTYYADSVKGRFTISRDNAKNTVYLQMNSLKPEDTAVYYCAATIRQYRRYDYWGQGTQVTVSS | low polyreactivity
